Patent US20190321401A1 (JUNO THERAPEUTICS, published 2019)

T1: HPV 16 E7 peptide on HLA-A*02:01 (human)
T1 peptide: YMLDLQPET

T2: HPV 16 E6 peptide on HLA-A*02:01 (human)
T2 peptide: TIHDIILECV

B1: TCR 65 (TCR, V domains shown)
Valpha: EDQVTQSPEALRLQEGESSSLNCSYTVSGLRGLFWYRQDPGKGPEFLFTLYSAGEEKEKERLKATLTKKESFLHITAPKPEDSATYLCAVQAERGSTLGRLYFGRGTQLTVWP
Vbeta: DVKVTQSSRYLVKRTGEKVFLECVQDMDHENMFWYRQDPGLGLRLIYFSYDVKMKEKGDIPEGYSVSREKKERFSLILESASTNQTSMYLCASSLWGRRNTGELFFGEGSRLTVL
B2: TCR 62 (TCR, V domains shown)
Valpha: AQTVTQSQPEMSVQEAETVTLSCTYDTSENNYYLFWYKQPPSRQMILVIRQEAYKQQNATENRFSVNFQKAAKSFSLKISDSQLGDTAMYFCALYTYKYIFGTGTRLKVLA
Vbeta: EAGVAQSPRYKIIEKRQSVAFWCNPISGHATLYWYQQILGQGPKLLIQFQNNGVVDDSQLPKDRFSAERLKGVDSTLKIQPAKLEDSAVYLCASSLDTRGSSYNEQFFGPGTRLTVL

Columns and labels:
[1] = target: T1, HPV 16 E7 peptide on HLA-A*02:01; assay: multimer staining
[2] = target: T2, HPV 16 E6 peptide on HLA-A*02:01; assay: multimer staining

| Binder | binding result [1] | binding result [2] |
| --- | --- | --- |
| B1 | no recognition | recognises |
| B2 | recognises | no recognition |
